Results reported in patent publication US20250264433A1 (STATE OF ISRAEL MINISTRY OF AGRICULTURE AND RURAL …, published 2025).

Legend:
[1] = target: T1, Recombinant His-tagged EspB (EspB-His), EPEC O127:H6 strain E2348/69; test: SPR (Biacore, EspB amine-coupled to a CM5 chip, mAb injected at 10-90 nM, steady-state fit); ELISA was run as well
T1 construct: also called purified EspB; full-length EspB

[2] = target: T1, Recombinant His-tagged EspB (EspB-His), …; test: ELISA, EspB-coated plate; mAb incubated in horse serum with 1% human serum
[3] = target: T2, EspB of Citrobacter rodentium DBS100 (Citrobacter rodentium); test: western blot of culture supernatants, mAb-EspB-B7 as primary antibody
T2 construct: also called C. rodentium EspB

[4] = target: T3, EspB homolog of Salmonella enterica serovar Typhimurium (Salmonella enterica serovar Typhimurium, UniProt D0ZV21 1-409); test: as above
T3 construct: also called Salmonella EspB homolog
T3 sequence: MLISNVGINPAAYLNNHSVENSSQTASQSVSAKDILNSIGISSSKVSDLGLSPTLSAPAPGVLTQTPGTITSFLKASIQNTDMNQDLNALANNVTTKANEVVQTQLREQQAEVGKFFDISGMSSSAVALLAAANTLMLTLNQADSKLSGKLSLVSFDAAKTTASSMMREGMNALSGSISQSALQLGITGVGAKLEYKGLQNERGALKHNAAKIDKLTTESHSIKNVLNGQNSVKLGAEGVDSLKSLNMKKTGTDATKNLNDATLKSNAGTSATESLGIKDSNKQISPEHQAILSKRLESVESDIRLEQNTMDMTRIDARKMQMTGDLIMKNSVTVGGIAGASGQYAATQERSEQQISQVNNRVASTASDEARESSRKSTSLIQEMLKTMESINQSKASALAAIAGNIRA

[5] = target: T1, Recombinant His-tagged EspB (EspB-His), …; test: ELISA, EspB-coated plate, serially diluted mAb, anti-human IgG-HRP
[6] = target: T1, Recombinant His-tagged EspB (EspB-His), …; test: ELISA, EspB-coated plate; mAb incubated with NaCl, curve labelled 274mM
[7] = target: T1, Recombinant His-tagged EspB (EspB-His), …; test: ELISA, EspB-coated plate; mAb incubated in 3% milk in PBS
[8] = target: T1, Recombinant His-tagged EspB (EspB-His), …; test: ELISA, EspB-coated plate; mAb incubated in goat serum with 1% human serum
[9] = target: T1, Recombinant His-tagged EspB (EspB-His), …; test: ELISA, EspB-coated plate; mAb incubated with NaCl, curve labelled 411mM
[10] = target: T4, EspB of enterohemorrhagic E. coli (EHEC); test: western blot of culture supernatants with mAb-EspB-B7
T4 construct: also called EHEC EspB

[11] = target: T1, Recombinant His-tagged EspB (EspB-His), …; test: ELISA, EspB-coated plate; mAb incubated with NaCl, curve labelled 45.6mM

B1: mAb-EspB-B7 (antibody, V domains shown)
VH: EVQLLESGGGLVQPGGSLRLSCAASGFTFSHYAMNWVRQAPGKGLEWVSAINSNGDSTYYPDTVKDRFTISRDNSKNTLYLQMNSLRAEDTAVYYCARDRRAGYFDYWGQGTLVTVSS
VL: DIVLTQPPSASGTPGQRVTISCSGSRDNIGKNYVSWYQQLPGTAPKLLIYRNNQRPSGVPDRFSGSKSGTSASLAISGLRSEDEADYYCSAWDTSLNAYVFGPGTQLTVL
notes: also called mAb-B7; anti-EspB antibody
- Kd [1]: 17.4 nM
- EC50 (read off the curve) [2]: ~3 nM
- binding result [3]: binds
- binding result [4]: no binding
- EC50 (read off the curve) [5]: ~8 nM
- EC50 (read off the curve) [6]: ~7 nM
- EC50 (read off the curve) [7]: ~5 nM
- EC50 (read off the curve) [8]: ~2 nM
- EC50 (read off the curve) [9]: ~10 nM
- binding result [10]: binds
- EC50 (read off the curve) [11]: ~3 nM
